Publication PMC11783328

Key:
[1] = target: BG505 SOSIP.v4.1 GT1.1 trimer (BG505 SOSIP germline trimer 1.1) (HIV-1 (isolate BG505)) (UniProt Q2N0S6); test: SPR; Biacore 3000; His-tagged GT1 and GT1.1 trimers captured in parallel flow cells, IgG injected from 1 μM in two- or four-fold dilutions; association 300 s, dissociation 600 s, 50 uL/min; bivalent model
[2] = target: 12A12 germline (gl-12A12); test: SPR; conditions: antibody dilution series, colour key 0.98-1000 nM; KD1 fitted by bivalent modeling; parent: ND
[3] = target: 3BNC60 mature; test: SPR; conditions: antibody dilution series, colour key 0.98-1000 nM; KD1 fitted by bivalent modeling
[4] = target: PGV19 germline (gl-PGV19); test: SPR; conditions: antibody dilution series, colour key 0.98-1000 nM; KD1 fitted by bivalent modeling
[5] = target: VRC01 germline (gl-VRC01); test: SPR; conditions: antibody dilution series, colour key 0.98-1000 nM; KD1 fitted by bivalent modeling
[6] = target: gl-3BNC60 IgG (inferred germline precursor of 3BNC60); test: SPR; conditions: antibody dilution series, colour key 0.98-1000 nM; KD1 fitted by bivalent modeling; parent: ND

Sequence of gl-3BNC60 IgG (inferred germline precursor of 3BNC60) (antibody) (VH): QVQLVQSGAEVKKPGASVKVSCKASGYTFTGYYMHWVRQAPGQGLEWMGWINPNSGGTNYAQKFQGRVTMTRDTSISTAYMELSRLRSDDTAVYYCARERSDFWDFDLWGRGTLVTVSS
Sequence of gl-3BNC60 IgG (inferred germline precursor of 3BNC60) (antibody) (VL): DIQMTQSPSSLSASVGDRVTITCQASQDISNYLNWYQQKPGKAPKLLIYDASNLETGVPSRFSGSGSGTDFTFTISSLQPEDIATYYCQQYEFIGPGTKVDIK

Substance	KD1 (bivalent model) [1] [nM]	Kd [2] [nM]	Kd [3] [nM]	Kd [4] [nM]	Kd [5] [nM]	Kd [6] [nM]
gl-3BNC60 IgG (inferred germline precursor of 3BNC60) (antibody)	780	–	–	–	–	–
BG505 SOSIP.v4.1-GT1 trimer (from UniProt Q2N0S6) E275K	–	200	< 0.1	24	360	780
